The values below come from the DeepSol protein solubility set.

This data set in a line: soluble on expression in E. coli; label from the status in PepcDB or PDB records.
In the case of “EKATENSPLVMIEYSSPNTNKPLHLGHVRNNLLGNALANVMAANGNKVVKTNIVNDRGIHICKSMLAWLKYGNGETPESSGKKGDHLIGDYYVAFDKHYKAEVKELTAQYQAEGLNEEEAKAKAEANSPLMLEAREMLRKWEANDPEIRALWKKMNDWVYAGFDETYKMMGVSFDKIYYESNTYLEGKEKVMEGLEKGFFYRKEDNSVWADLTAEGLDHKLLLRGDGTSVYMTQDIGTAKLRFQDYPINKMIYVVGNEQNYHFQVLSILLDKLGFEWGKGLVHFSYGMVELPEGKMKSREGTVVDADDLMEAMIETAKETSAELGKLDGLTQEEADNIARIVGLGALKYFILKVDARKNMTFNPKESIDFN”, the “soluble on expression in E. coli” value is given as “not soluble”. Under “GPGSMFFYQRRLASGLPVRFLSLRAWRSSPENFRKTSAFLKALKAKTPAAGVSAEGFGARPVVVITGGERGIGKEVVHQLLREGVDVILCCPFEAEALRTIARLKARVSNSRVHFVKLDLNDEESVRECAAEVLGMTPRIDVLINNSGLVSPLSHKLNKRGYEVVLSINFLGHVLFTELLLERVKASGPSRIVNVASLMHLDACVEGPCKTALDVMAANCDPTSPHHTRNYSLSKLLLVCYTRDLARHLRGTDTAVATLHPGVVITDIYAFAVIFMRVFFRTVFKFPGEGAEVVLYCALADNIRSGSFYADCAEYNSLLSPLAVDDAHNERLRRVLLRYFALDGSKPTGKSLADVVQSTP” stands “not soluble”; under “MSLELSPTYQTERFTKFSDTLKEFKIEQNNEQNPIDPFNIIREFRSAAGQLALDLANSGDESNVISSKDWELEARFWHLVELLLVFRNADLDLDEMELHPYNSRGLFEKKLMQDNKQLYQIWIVMVWLKENTYVMERPKNVPTSKWLNSITSGGLKSCDLDFPLRENTNVLDVKDKEEDHIFFKYIYELILAGAIDEALEEAKLSDNISICMILCGIQEYLNPVIDTQIANEFNTQQGIKKHSLWRRTVYSLSQQAGLDPYERAIYSYLSGAIPNQEVLQYSDWESDLHIHLNQILQTEIENYLLENNQVGTDELILPLPSHALTVQEVLNRVASRHPSESEHPIRVLMASVILDSLPSVIHSSVEMLLDVVKGTEASNDEGHHHHHH”, “not soluble”.

For the sequence “GAMSYSLYGTTLEQQYNKPLSDLLIRCINCQKPLSPEEKQRHLDKKQRFHNIRGRWTGRCMSCSRSSRTRRETQL”, the “soluble on expression in E. coli” value is “soluble”. On to “MTTKPPIERIMYIELRTSLEMFRSDLVDLEALANAAKEALEQLPYIPKNPCGKGEDDDPLSGPESALRTGRLCGLVCCTATAAEGALSTCSKLIDWAYANEPEGVDDAVLADDIDGDDDDDDEGSGSNGANGGGGANGSGNGSNGSGNGGPPDGGVESAAPAGSTELAEARPSRGGIALDLPPAHAPHGAPVA”, for which the “soluble on expression in E. coli” value was “not soluble”. Turning to “GDALTSPQQTKLYLSSVLRDRQREAFYILFLDNQHRVIRDEILFEGTIDAASVYPREVVKRALHHNAAAVILAHNHPSGVAEPSQADRRITDRLRDALGLVEIRVLDHFVVGDGEVVSFAERGWI”, the “soluble on expression in E. coli” value is “soluble”.

“MKKFTLEEFLDLLKKYNVEEIEGVKIEGDLEIEFEGSSIDLSAIAPLYSMLSEFGNFLYHANMALGYLQRLSAALGIPTPFAAQPQLAPAAPAAPAEVPAVEELKIPAELVRAKFEPYKEEYPGKIEEVVLGATKADGGTREYTVTLGGERSLAFYTFDAPQPHLPAIAIDVFDRRPMLAKAVRMHYEDVLDNPAEWARKCVKKFGADLVTLHLISTDPLLDDTPASEAVKVLEDVLQAVKCPIIVGGSGNKEKDPEVLEKAAEVAEGERIMLASATLDMDWERIANAAKKYGHVVLSWTQMDINNQKTLNRYLLKRVEMPRDSIVMDPTTAALGYGLDYAFTNMERIRISGLKGDTDLNFPISSGTTNAWGAREAWMVDSPIEEDTPWGPRELRGPIWEIITGLTLSLAGVDLFMMMHPVAVAVLKEVFNTLGGKVSGGVADPGEWIFMEV”: the “soluble on expression in E. coli” value is listed as “not soluble”. As for “MNGLATSLGKGQESAIGGSSAIGEYIRPLPQPGDRPEPLSAKPTFLSRSGSARCRSESDMENERNSNTSKQRYSGKVHLCVARYSYNPFDGPNENPEAELPLTAGKYLYVYGDMDEDGFYEGELLDGQRGLVPSNFVDFVQDNESRLASTLGNEQDQNFINHSGIGLEGEHILDLHSPTHIDAGITDNSAGTLDVNIDDIGEDIVPYPRKITLIKQLAKSVIVGWEPPAVPPGWGTVSSYNVLVDKETRMNLTLGSRTKALIEKLNMAACTYRISVQCVTSRGSSDELQCTLLVGKDVVVAPSHLRVDNITQISAQLSWLPTNSNYSHVIFLNEEEFDIVKAARYKYQFFNLRPNMAYKVKVLAKPHQMPWQLPLEQREKKEAFVEFSTLPAGPPAPPQDVTVQAGVTPATIRVSWRPPVLTPTGLSNGANVTGYGVYAKGQRVAEVIFPTADSTAVELVRLRSLEAKGVTVRTLSAQGESVDSAVAAVPPELLVPPTPHPRPAPQSKPLASSGVPETKDEHLGPHARMDEAWEQSRAPGPVHGHMLEPPVGPGRRSPSPSRILPQPQGTPVSTTVAKAMAREAAQRVAESSRLEKRSVFLERSSAGQYAASDEEDAYDSPDFKRRGASVDDFLKGSELGKQMVS”, the “soluble on expression in E. coli” value is “not soluble”. The entry for “MSLFITDKRVKESATALNPSMFQGLYLQDQMLKDPTYLPIYGSSELSRLDEFHPSNYFQVNNEGFTPYLVGKGGSQSLIHSLNFAAHMDQLKGKKIVFIVSPQWFIKRGSDEQHFAPNYSALQGLDLAFNDQIDPEIKKKMMKRMLRFKAVQNDAILSELYKAMVNGQTWKVNALKPAAKVYYSMLEKKDLYYSTTESSGPKRYISQSVKDKSWSELNKLADQSGKRHSGSNDFHIDNPVYKKLKPKVPKLKGKNKGRSYAVSPEYGDFEMMLDILKDAGAEPMFVTIPVNGKWYDYTGFPKKGRTDYYKKVNKQIRAKGFQVADFSGHEYDPYFMKDTIHIGWKGWVYVDKAIDEFYKTGKVTSSEGHHHHHH” is “not soluble”; for “MQVLVRDNNVDQALRALKKKMQREGIFREMKMRGYYEKPSEKRAREKAEAVRRTRKLARKRAQREGLISNGRGSPLKLEHHHHHH” it is “not soluble”; for “MGSDKIHHHHHHMLQFQPPGFGHKLIHTSLGAMVYYTQTNTPWAFADTEDLPPLLFLHNFGGGASAYEWSKVYPAFASNYHILAPDLIGWGESAHPVRDYKIRDYLSTIAEFIIETCRQPVTVVASSLTAAFAIRLAIVQPNLFKALFLVSPSGFDDFGQGAGRRLPLSVINTPLLDNFIYMLGAENEIAVRNFLQSFLFAKSERVSQEIVDAYLTSAQQPNAKFSALAFLRGDLYFDLSLYIQQLTIPTVMFWGEKAQFTNIKLGQRLANLNQRAIQDFYAIADAGILPHLEIPEVVIGLLQRYLR” it is “not soluble”. Under “MPFKPVEHPKCPKCGKSVYAAEEMSAGGYKWHKFCFKCNMCNKLLDSCTVAPHEAELYCKQCHGRKFGPKGVGFGLGAGCLTTDSGEKFGGSKQT” stands “not soluble”; under “MGSDKIHHHHHHMKKIQLTNAHKEKLFQIPLFRDLPLNIKESLLDKLDFVIYAADKKEIVVTQGTPCNKLYVLLEGKLRTDIIDGLGNEVMIEYIIAPRTFATPHLFNSNNTLPATFTALEDSVVLMATKDSTFKVISQDPQVLHNFLCIAGNCNICTVSRLKPLSRKTVRERFIVYLFEHKKKDSLTVEIMHTQSQLAEYLNVSRPALSKEINKIIKEGLITMEGKKIEILNKMALEKYL”, “not soluble”.

Turning to “MSLALAIFDLDETLIHGDCATLWSEQMGRLGWVDSESFMRRNHELMDAYSHGKLAMEEFMDFSLEPMSGRTPEEVAHLVEPWVEEVIEPIIFSDACKAIAAHRQAGDRILVISASGTHLVKPIAARLGIDEVLGIELEVQHGVYSGRTVGTLTYREGKITRLLQWLDAEEENLEGATFYSDSRNDLPLLLRVDHPQVVNPDPVLREHAQKAGWPIHHWKEGHHHHHH”, the “soluble on expression in E. coli” value is given as “soluble”. As to “MKILVFGGTRFFGKKLVERLVSEGHDVTIGTRGKTEDNFGDTVKRVVLNRESRDALFQLAKEDWDVIYDNICFSPKEALYAVDAFKGKVKRYIYTSSLSVYSQKGRALVEADFNPEHYEIVIGDKEDFDYGEGKRLAEAVFFQKASFPVVAVRFPIVLGLDDYTKRLHFHINHIKNHQEIGISNGQAEIGFITSDEAAHFLEWVGVESDLTGPVNATSNGTYALNGFIKMLEEKIGELALVEEVTDDVDDSPFGIEKTYYLDNAKATEAGFVFNDLKVWLPALVTDILKENLEHHHHHH”, the “soluble on expression in E. coli” value is given as “not soluble”. The entry for “MEGWQRAFVLHSRPWSETSLMLDVFTEESGRVRLVAKGARSKRSTLKGALQPFTPLLLRFGGRGEVKTLRSAEAVSLALPLSGITLYSGLYINELLSRVLEYETRFSELFFDYLHCIQSLAGVTGTPEPALRRFELALLGHLGYGVNFTHCAGSGEPVDDTMTYRYREEKGFIASVVIDNKTFTGRQLKALNAREFPDADTLRAAKRFTRMALKPYLGGKPLKSRELFRQFMPKRTVKTHYE” is “soluble”. Turning to “MGSDKIHHHHHHLRVKKKWFIPIGILALSSWFLYRENNQIDTTAVTVQSDKLPAAFNDYKILQIADLHGKSFGSRQKVLLKKVNKLQPDVILMTGDLIDSRRNGEEEALLLMKQLTPDYPVYFVTGNHEVRLNLTILPKLEQLGVTVLRNTSVSLEQNGQFIELLGIDDPTTTRWSEGLQEPDGIRQSLDQAQSTAETRSFQLLMAHRPEYLPLYAERKVDLVLSGHAHGGQIRLPFTDGMYAPGQGFFPDLTAGQHTMENTRLIISRGLGNSLFPFRIFNHPELIVVTLRT”, the “soluble on expression in E. coli” value is recorded as “not soluble”. The entry for “MGSDKIHHHHHHMKDSDILMLAEEGESTSEASARKKALLLGRQLGLASEQEYRPANASIAERAQHRARKLSSQYQANVETIFALALSYTPSDVTGVDLDPDWSHQFFLMAEQIHNRRMQDLWARILSSEIVNPGNFSLRTLALLKQLTHREAQILEKALGMAAKVNSEQRLKLISGYRLSGGIGQYFRKTTSVNLGLSQFGLPYSSILTLVDAGILHSSEFETGLLNNKTPIQFALQGIQMKLTPKSGNLLFSYYRFTPIGDELAQLVQPKPDQEYLKALQLLFAKDFKIE” is “not soluble”; for “MRRSLVVAVMAIMPMVGLANQNSRPDIQVNVPPEVFSTRGQSSQPCIQCCVYQDQNYSEGAVIKVEGVVLQCQRDEKTISTNPLVWRRVKPLEHHHHHH” it is “not soluble”.

For the sequence “GRSLGKLGMRYGKKRVHIAKRNLELAFPEKTPEEVQHIVEENFKNTGMALIETGITWFWPTWRFKTLIVEKDIHALKEKGAEGK”, the “soluble on expression in E. coli” value is “not soluble”. Under “GPLGSPEFPGEFYIPPEPSNDAIEIFSSGIASGIHFSKYNNIPVKVTGSDVPQPIQHFTSADLRDIIIDNVNKSGYKIPTPIQKCSIPVISSGRDLMACAQTGSGKTAAFLLPILSKLLEDPHELELGRPQVVIVSPTRELAIQIFNEARKFAFESYLKIGIVYGGTSFRHQNECITRGCHVVIATPGRLLDFVDRTFITFEDTRFVVLDEADRMLDMGFSEDMRRIMTHVTMRPEHQTLMFSATFPEEIQRMAGEFLKNYVFVAIGIVGGACSDVKQTIYEVNKYAKRSKLIEILSEQADGTIVFVETKRGADFLASFLSEKEFPTTSIHGDRLQSQREQALRDFKNGSMKVLIATSVASRGLDIKNIKHVINYDMPSKIDDYVHRIGRTGRVGNNGRATSFFDPEKDRAIAADLVKILEGSGQTVPDFLRTC” stands “soluble”.
